Test results from article PMC4287557.

Target: JRFL SOSIP trimer (HIV-1 subtype B, truncated at residue 663), negatively selected (HIV-1 subtype B strain JRFL)

B1: PGV04 Fab (Fab, V domains shown)
VH: QVQLVQSGSGVKKPGASVRVSCWTSEDIFERTELIHWVRQAPGQGLEWIGWVKTVTGAVNFGSPDFRQRVSLTRDRDLFTAHMDIRGLTQGDTATYFCARQKFYTGGQGWYFDLWGRGTLIVVSS
VL: EIVLTQSPGTLSLSPGETASLSCTAASYGHMTWYQKKPGQPPKLLIFATSKRASGIPDRFSGSQFGKQYTLTITRMEPEDFARYYCQQLEFFGQGTRLEIR
increase of the melting temperature (Tm) of the JRFL SOSIP-Fab complex over the trimer alone, DSF: 3.6 °C
